Measurements published in paper PMC10242635.

T1: FXR-DBD (human, UniProt Q96RI1-1 117-217)
T1 sequence: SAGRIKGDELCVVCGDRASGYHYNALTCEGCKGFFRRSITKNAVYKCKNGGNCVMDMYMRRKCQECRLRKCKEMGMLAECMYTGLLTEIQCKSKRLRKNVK

B1: IR1 (FPA) (dsDNA)
DNA 1: CCGAGGTCAATGACCTCG
DNA 2: CGAGGTCATTGACCTCGG
B2: IR1 (crystal) (dsDNA)
DNA 1: CCGAGGTCAATGACCTCG
DNA 2: CCGAGGTCATTGACCTCG

Assays:
FXR-DBD;RXR-DBD [1] = biological target: T2, FXR-DBD;RXR-DBD (human;human, UniProt Q96RI1-1;P19793 117-217;130-212, |); assay: fluorescence polarization
FXR-DBD = biological target: T1, FXR-DBD; assay: fluorescence polarization
FXR-DBD;RXR-DBD [2] = biological target: T2, FXR-DBD;RXR-DBD; assay: X-ray crystallography

T2 sequence (P19793 130-212, one chain of several): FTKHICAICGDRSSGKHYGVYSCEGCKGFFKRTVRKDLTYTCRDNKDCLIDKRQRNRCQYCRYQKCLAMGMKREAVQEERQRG

| Binder | Kd (FXR-DBD;RXR-DBD [1]) [nM] | Kd (FXR-DBD) [nM] | binding result (FXR-DBD;RXR-DBD [2]) |
| --- | --- | --- | --- |
| B1 | ~54 | 95 |  |
| B2 |  |  | binds |
